Assay [1] concerns the target HA of influenza A/Moscow (A/Moscow/10/99-like (H3N2)) on infected cells (influenza A virus A/Moscow/10/99-like (H3N2)).
The target in assay [2] is HA of influenza A/Sydney (A/Sydney/5/97-like (H3N2)) on infected cells (influenza A virus A/Sydney/5/97-like (H3N2)).
For assay [3], the target named is HA of influenza virus New Caledonia (H1N1) on infected cells (influenza A virus New Caledonia (H1N1)).
The target of assay [4] is HA of influenza A/Beijing (A/Beijing/262/95-like (H1N1)) on infected cells (influenza A virus A/Beijing/262/95-like (H1N1)).
Assay [5] addresses hemagglutinin-neuraminidase of Sendai virus (SV) on infected cells (Sendai virus).
The target of assay [6] is HA of influenza virus Yamanashi (B strain) on infected cells (influenza B virus Yamanashi).

“NKp30-Ig fusion protein (from UniProt O14931 19-135) (Fc fusion)”: the MFI in assay [1] stood at 8; in assay [2], 8; in assay [3] it was 10; in assay [4] it was 4.
“NKp44-Ig fusion protein (from UniProt O95944 22-190) (Fc fusion)”: the MFI amounted to 350 in assay [5]; 24 in assay [1]; 120 in assay [2]; 518 in assay [3]; 117 in assay [6]; 128 in assay [4].
With “NKp46-Ig fusion protein (from UniProt O76036 22-254) (Fc fusion)”, the MFI in assay [1] was 20; in assay [2], 58; in assay [3] it was 315; in assay [4] it was 44.
Regarding “NKp46D1-Ig fusion protein (membrane distal domain of NKp46 fused to Fc of human IgG1) (from UniProt O76036 22-120) (Fc fusion)”, the MFI was 8 in assay [5]; 8 in assay [1]; 10 in assay [2]; 5 in assay [3]; 8 in assay [6]; 7 in assay [4].
As for “NKp46D2-Ig fusion protein produced in COS cells (membrane proximal domain of NKp46 fused to Fc of human IgG1) (from UniProt O76036 121-254) (Fc fusion)”, the MFI in assay [5] worked out at 95; in assay [1], 50; in assay [2] it was 100; in assay [3] it was 420; in assay [6] it was 51; in assay [4], 77.

B1: CD99-Ig fusion protein (Fc fusion)
chain: DGGFDLSDALPDNENKKPTAIPKKPSAGDDFDLGDAVVDGENDDPRPPNPPKPMPNPNPNHPSSSGSFSDADLADGVSGGEGKGGSDGGGSHRKEGEEAD
Regarding B1, the MFI in assay [5] was 0.5; in assay [1], 0; in assay [2], 1; in assay [3], 0; in assay [6], 0; in assay [4], 0.
